What all share (assay): cell-based or functional assay
Experiment [1] concerns the target human glucagon receptor (human) (UniProt P47871).
Experiment [2] addresses human GLP-1 receptor (human) (UniProt P43220).
A further experiment addresses human glucagon receptor (human, UniProt P47871 26-477).

Positions of bridges follow the written chain, without caps; N, C: chain ends. Non-standard residues stand in square brackets, D forms with d. No end group written: not given here. *: point of attachment. Acetyl(2-(4-imidazolyl)) = O=C(Cc1c[nH]cn1)*; Aib = CC(C)(N)C(=O)O

Sequence of human glucagon receptor (P47871 26-477): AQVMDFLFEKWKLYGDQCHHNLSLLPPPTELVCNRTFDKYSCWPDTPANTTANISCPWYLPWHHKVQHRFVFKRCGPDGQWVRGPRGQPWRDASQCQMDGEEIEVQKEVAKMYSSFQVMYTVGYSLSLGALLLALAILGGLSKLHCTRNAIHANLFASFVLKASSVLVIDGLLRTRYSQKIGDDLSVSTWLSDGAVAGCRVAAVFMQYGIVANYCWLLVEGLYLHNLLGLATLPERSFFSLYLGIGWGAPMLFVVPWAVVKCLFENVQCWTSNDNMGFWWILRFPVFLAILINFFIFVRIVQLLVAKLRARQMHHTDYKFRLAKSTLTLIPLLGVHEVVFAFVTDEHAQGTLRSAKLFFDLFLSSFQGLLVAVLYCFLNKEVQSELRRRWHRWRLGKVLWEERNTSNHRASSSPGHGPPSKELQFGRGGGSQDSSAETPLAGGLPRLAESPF
Sequence of human glucagon receptor (human) (P47871 26-477): as above
Sequence of human GLP-1 receptor (human) (P43220 24-463): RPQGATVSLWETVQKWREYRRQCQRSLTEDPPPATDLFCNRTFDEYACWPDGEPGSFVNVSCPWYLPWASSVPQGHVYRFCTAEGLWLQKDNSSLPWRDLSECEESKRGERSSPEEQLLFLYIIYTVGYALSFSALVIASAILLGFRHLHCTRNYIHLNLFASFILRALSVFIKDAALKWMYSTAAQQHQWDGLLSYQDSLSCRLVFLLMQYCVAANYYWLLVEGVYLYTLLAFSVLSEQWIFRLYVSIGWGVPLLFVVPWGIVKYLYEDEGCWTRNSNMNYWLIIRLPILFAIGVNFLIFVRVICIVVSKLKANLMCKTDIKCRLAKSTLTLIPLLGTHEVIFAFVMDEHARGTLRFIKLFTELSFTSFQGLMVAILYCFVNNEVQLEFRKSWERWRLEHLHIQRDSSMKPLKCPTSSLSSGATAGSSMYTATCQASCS

B1: oxyntomodulin analog (SEQ ID NO: 8) (peptide)
peptide: [Acetyl(2-(4-imidazolyl))]SQGTFTSDLSRQLEEEAVRLFIEWLMNK
As for B1, the EC50 (nM), cAMP, CHO/GCGR in experiment [1] is > 1000 nM. This molecule also returned an EC50 (nM), cAMP, CHO/GLP-1R in experiment [2] of 420 nM.

B2: oxyntomodulin analog (SEQ ID NO: 24) (peptide)
peptide: H[Aib]QGTFTSDYSKYLDEKRAKEFVQWLMNTC
Take B2: the “EC50 (nM), cAMP, CHO/GCGR” value with human glucagon receptor worked out at 6.95 nM.

B3: oxyntomodulin analog (SEQ ID NO: 3) (peptide)
peptide: [Acetyl(2-(4-imidazolyl))]SQGTFTSDYSKYLDERRAQDFVAWLKNTGPSSGAPPPS
The molecule B3 had an EC50 (nM), cAMP, CHO/GCGR in experiment [1] of 638 nM. Besides, the EC50 (nM), cAMP, CHO/GLP-1R in experiment [2] is > 1000 nM.

B4: oxyntomodulin analog (SEQ ID NO: 34) (peptide)
peptide: Y[Aib]QGTFTSDYSKYLDEKRAKEFVQWLMNTC
modifications: bridge 16-20
For the molecule B4, the “EC50 (nM), cAMP, CHO/GCGR” value in the experiment with human glucagon receptor was determined as 1.04 nM.

B5: oxyntomodulin analog (SEQ ID NO: 25) (peptide)
peptide: H[Aib]QGTFTSDYSKYLDEKRAKEFVQWLMNTC
modifications: bridge 16-20
Take B5: the “EC50 (nM), cAMP, CHO/GCGR” value with human glucagon receptor was 1.3 nM.

B6: oxyntomodulin analog (SEQ ID NO: 18) (peptide)
peptide: [Acetyl(2-(4-imidazolyl))]SQGTFTSDYSRYLDEEAVRLFIEWIRNGGPSSGAPPPSK
In the case of B6, the EC50 (nM), cAMP, CHO/GCGR in experiment [1] is > 1000 nM. Also, the EC50 (nM), cAMP, CHO/GLP-1R in experiment [2] came to 96.3 nM.

The record behind these values is US20180237490A1 (HANMI PHARM, published 2018).
